Assay results: patent US20200299675A1 (UNIVERSITY OF ROCHESTER, published 2020)

Target: T1, streptavidin (Streptomyces avidinii, UniProt P22629 37-163)
T1 construct: also called streptavidin-coated beads; streptavidin-coated magnetic beads
Assay: direct binding assay with plate-immobilized streptavidin and HRP-conjugated anti-FLAG antibody
Method: For the Keap1 binding assay, Keap1 was immobilized on microtiter plates by incubating 100 μL of a 4 μM protein solution in PBS buffer overnight at 4° C., followed by washing (3×150 μL of PBS with 0.5% Tween-20) and blocking with 0.5% bovine serum albumin in PBS for 1.5 h at room temperature. After washing, each well was incubated with 100 μL of purified FLAG-tagged peptide at varying concentrations for 1 hour at room temperature. After washing three times with wash buffer, each well was incubated with 100 μL of 1:2500 dilution of HRP-conjugate mouse anti-FLAG polyclonal antibody (Sigma-Aldrich) for 1 hour at room temperature. After three washing step with wash buffer, 100 μL of 2.2 mM o-phenylenediamine dihydrochloride, 4.2 mM urea hydrogen peroxide, 100 mM dibasic sodium phosphate, and 50 mM sodium citrate, pH 5.0, were added to each well, followed by measurement of the absorbance at 450 nm after 10-20 min using a Tecan Infinite 1000 plate reader. Equilibrium dissociation constants (KD) were determined by fitting the dose-response curves to a 1:1 binding isotherm equation via nonlinear regression using SigmaPlot. Mean values and standard deviations were calculated from experiments performed in triplicate.

T1 sequence (P22629 37-163, tags left off): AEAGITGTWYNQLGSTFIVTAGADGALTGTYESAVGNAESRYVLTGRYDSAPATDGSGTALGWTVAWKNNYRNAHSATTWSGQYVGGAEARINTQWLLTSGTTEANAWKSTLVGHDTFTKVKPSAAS

B1: CBD alone (other)
chain: MKIEEGKLTNPGVSAWQVNTAYTAGQLVTYNGKTYKCLQPHTSLAGWEPSNVPALWQLQNNGNNGLELRHG
B1: no binding.
